Results published in US20240400715A1 (VIBRANT PHARMA, published 2024).
Positions count from the first letter of the chain named.

B1: 107 (CEA-Knob-Fab-+Hole) (bispecific antibody, human IgG4 S228P, kappa, F234A L235A)
heavy: EVQLVESGGGFVQAGESLTLSCTSSTLTFTPYRMAWYRQAPGKQRDLVADISSGDGRTTNYADFAKGRFTISRDNIKNTVFLRMTNLKPEDTAVYYCNTFVSFVGIARSWGQGTQVTVSSESKYGPPCPPCPAPEAAGGPSVFLFPPKPKDTLMISRTPEVTCVVVDVSQEDPEVQFNWYVDGVEVHNAKTKPREEQFNSTYRVVSVLTVLHQDWLNGKEYKCKVSNKGLPSSIEKTISKAKGQPREPQVYTLPPCQEEMTKNQVSLWCLVKGFYPSDIAVEWESNGQPENNYKTTPPVLDSDGSFFLYSRLTVDKSRWQEGNVFSCSVMHEALHNHYTQKSLSLSLGGGGSGGGGEVKLLESGGGLVQPKGSLKLSCAASGFTFNTYAMNWVRQAPGKGLEWVARIRSKYNNYATYYADSVKDRFTISRDDSQSILYLQMNNLKTEDTAMYYCVRHGNFGNSYVSWFAYWGQGTLVTVSSASTKGPSVFPLAPCSRSTSESTAALGCLVKDYFPEPVTVSWNSGALTSGVHTFPAVLQSSGLYSLSSVVTVPSSSLGTKTYTCNVDHKPSNTKVDKRV
chain: ESKYGPPCPPCPAPEAAGGPSVFLFPPKPKDTLMISRTPEVTCVVVDVSQEDPEVQFNWYVDGVEVHNAKTKPREEQFNSTYRVVSVLTVLHQDWLNGKEYKCKVSNKGLPSSIEKTISKAKGQPREPQVCTLPPSQEEMTKNQVSLSCAVKGFYPSDIAVEWESNGQPENNYKTTPPVLDSDGSFFLVSRLTVDKSRWQEGNVFSCSVMHEALHNRFTQKSLSLSL
light: QAVVTQESALTTSPGETVTLTCRSSTGAVTTSNYANWVQEKPDHLFTGLIGGTNKRAPGVPARFSGSLIGDKAALTITGAQTEDEAIYFCALWYSNLWVFGGGTKVEIKRTVAAPSVFIFPPSDEQLKSGTASVVCLLNNFYPREAKVQWKVDNALQSGNSQESVTEQDSKDSTYSLSSTLTLSKADYEKHKVYACEVTHQGLSSPVTKSFNRGEC
notes: TA1 Fab, C17 VHH, IgG4 Fc KIH
B2: 108 (Knob-Fab+CEA-Hole) (bispecific antibody, human IgG4 S228P, kappa, F234A L235A)
heavy: ESKYGPPCPPCPAPEAAGGPSVFLFPPKPKDTLMISRTPEVTCVVVDVSQEDPEVQFNWYVDGVEVHNAKTKPREEQFNSTYRVVSVLTVLHQDWLNGKEYKCKVSNKGLPSSIEKTISKAKGQPREPQVYTLPPCQEEMTKNQVSLWCLVKGFYPSDIAVEWESNGQPENNYKTTPPVLDSDGSFFLYSRLTVDKSRWQEGNVFSCSVMHEALHNHYTQKSLSLSLGGGGSGGGGSEVKLLESGGGLVQPKGSLKLSCAASGFTFNTYAMNWVRQAPGKGLEWVARIRSKYNNYATYYADSVKDRFTISRDDSQSILYLQMNNLKTEDTAMYYCVRHGNFGNSYVSWFAYWGQGTLVTVSSASTKGPSVFPLAPCSRSTSESTAALGCLVKDYFPEPVTVSWNSGALTSGVHTFPAVLQSSGLYSLSSVVTVPSSSLGTKTYTCNVDHKPSNTKVDKRV
chain: EVQLVESGGGFVQAGESLTLSCTSSTLTFTPYRMAWYRQAPGKQRDLVADISSGDGRTTNYADFAKGRFTISRDNIKNTVFLRMTNLKPEDTAVYYCNTFVSFVGIARSWGQGTQVTVSSESKYGPPCPPCPAPEAAGGPSVFLFPPKPKDTLMISRTPEVTCVVVDVSQEDPEVQFNWYVDGVEVHNAKTKPREEQFNSTYRVVSVLTVLHQDWLNGKEYKCKVSNKGLPSSIEKTISKAKGQPREPQVCTLPPSQEEMTKNQVSLSCAVKGFYPSDIAVEWESNGQPENNYKTTPPVLDSDGSFFLVSRLTVDKSRWQEGNVFSCSVMHEALHNRFTQKSLSLSL
light: B1 light
notes: TA1 Fab, C17 VHH, IgG4 Fc KIH
B3: 109 (Knob-Fab+Hole-CEA) (bispecific antibody, human IgG4 S228P, kappa, F234A L235A)
heavy: B2 heavy
chain: ESKYGPPCPPCPAPEAAGGPSVFLFPPKPKDTLMISRTPEVTCVVVDVSQEDPEVQFNWYVDGVEVHNAKTKPREEQFNSTYRVVSVLTVLHQDWLNGKEYKCKVSNKGLPSSIEKTISKAKGQPREPQVCTLPPSQEEMTKNQVSLSCAVKGFYPSDIAVEWESNGQPENNYKTTPPVLDSDGSFFLVSRLTVDKSRWQEGNVFSCSVMHEALHNRFTQKSLSLSLGGGGSGGGGSEVQLVESGGGFVQAGESLTLSCTSSTLTFTPYRMAWYRQAPGKQRDLVADISSGDGRTTNYADFAKGRFTISRDNIKNTVFLRMTNLKPEDTAVYYCNTFVSFVGIARSWGQGTQVTVSS
light: B1 light
notes: TA1 Fab, C17 VHH, IgG4 Fc KIH
B4: 110 (CEA-Knob+Hole-Fab) (bispecific antibody, human IgG4 S228P, kappa, F234A L235A)
chain: B2 chain with C251Y, S256C, S268W, A270L, V309Y, R337H, F338Y
heavy: B2 heavy with Y131C, C136S, W148S, L150A, Y189V, H217R, Y218F
light: B1 light
notes: TA1 Fab, C17 VHH, IgG4 Fc KIH
B5: 111 (Knob+CEA-Hole-Fab) (bispecific antibody, human IgG4 S228P, kappa, F234A L235A)
chain: B1 chain with C131Y, S136C, S148W, A150L, V189Y, R217H, F218Y
heavy: EVQLVESGGGFVQAGESLTLSCTSSTLTFTPYRMAWYRQAPGKQRDLVADISSGDGRTTNYADFAKGRFTISRDNIKNTVFLRMTNLKPEDTAVYYCNTFVSFVGIARSWGQGTQVTVSSESKYGPPCPPCPAPEAAGGPSVFLFPPKPKDTLMISRTPEVTCVVVDVSQEDPEVQFNWYVDGVEVHNAKTKPREEQFNSTYRVVSVLTVLHQDWLNGKEYKCKVSNKGLPSSIEKTISKAKGQPREPQVCTLPPSQEEMTKNQVSLSCAVKGFYPSDIAVEWESNGQPENNYKTTPPVLDSDGSFFLVSRLTVDKSRWQEGNVFSCSVMHEALHNRFTQKSLSLSLGGGGSGGGGSEVKLLESGGGLVQPKGSLKLSCAASGFTFNTYAMNWVRQAPGKGLEWVARIRSKYNNYATYYADSVKDRFTISRDDSQSILYLQMNNLKTEDTAMYYCVRHGNFGNSYVSWFAYWGQGTLVTVSSASTKGPSVFPLAPCSRSTSESTAALGCLVKDYFPEPVTVSWNSGALTSGVHTFPAVLQSSGLYSLSSVVTVPSSSLGTKTYTCNVDHKPSNTKVDKRV
light: B1 light
notes: TA1 Fab, C17 VHH, IgG4 Fc KIH
B6: 112 (Knob-CEA+Hole-Fab) (bispecific antibody, human IgG4 S228P, kappa, F234A L235A)
chain: B3 chain with C131Y, S136C, S148W, A150L, V189Y, R217H, F218Y
heavy: B2 heavy with Y131C, C136S, W148S, L150A, Y189V, H217R, Y218F
light: B1 light
notes: TA1 Fab, C17 VHH, IgG4 Fc KIH

molecular target: T1, human CD3ε/δ (ACRO systems, CDD-H52W1) (human, UniProt P07766 23-126; P04234 22-105); experiment: serum-stability ELISA, Day 0 (reference)
T1 construct: bought recombinant heterodimer; also called human CD3 epsilon/delta; Human CD3ε/CD3δ
Method: (§1) The samples to be tested were centrifuged at 4° C. at 12000 rpm for 30 minutes to remove the precipitate. 200 μl of each sample to be tested (0.5 mg/ml) was collected in a 1.5 ml Eppendorf tube. An equal volume of human serum (GEMINI, H2OYOOK) was added, mixed thoroughly, and the mixture was incubated in a 37° C. constant temperature CO₂ incubator. For a total of 10 days, 40 μl samples was aspirated every day and stored at −20° C.
(§2) Enzyme-linked immunosorbent assay (ELISA) was used to test the bispecific antibodies' binding to human CEA and human CD3 epsilon/delta antigen. The steps are as follows: the antigen human CD3ε/δ (ACRO systems, CDD-H52W1) and the recombinant tumor antigen human CEA (CEACAM-5/CD66e, ACRO systems, CE5-H5226) were diluted to 1 μg/ml with PBS, and then added to the 96-well plate at 100 μl per well. The wells were coated overnight at 4° C. After washing 3 times with 0.05% PBST, 200 μl 5% skimmed milk powder was added to each well and incubated at 37° C. for 2 h. After washing 3 times with 0.05% PBST, 100 μl primary antibody sample (10 μg/ml) was added to each well, and incubated at 37° C. for 2 h. After washing 3 times with 0.05% PBST, 100 μl (1:6000) diluted secondary antibody goat anti-human Fc-HRP (sigma, A2170) was added to each well, incubated at room temperature for 1 h. After washing 8 times with 0.05% PBST, 50 μl TMB color developing solution was added to each well, and incubated at room temperature for 10-15 min. 50 μl 1 mM HCl was added to each well to stop the color development. 450 nm Absorbance (OD) was read.
(§3) The binding of antibodies to antigen was calculated according to the following formula: Binding (%)=[(ODdayn−ODb)/(ODday0−ODb)]×100%. ODdayn: experimental well (the protein was stored in the serum for n days); ODday0: control well (the protein was not stored in the serum); ODb: blank well (no primary antibody added).

Row | Binder | Binding %
1 | B1 | 100%
2 | B2 | 100%
3 | B3 | 100%
4 | B4 | 100%
5 | B5 | 100%
6 | B6 | 100%

molecular target: T1, human CD3ε/δ (ACRO systems, CDD-H52W1); experiment: serum-stability ELISA, Day 6 vs Day 0
Method: as §1, §2, §3

Row | Binder | Binding %
7 | B1 | 123%
8 | B2 | 98.4%
9 | B3 | 85.7%
10 | B4 | 76.9%
11 | B5 | 99.2%
12 | B6 | 110%

molecular target: T1, human CD3ε/δ (ACRO systems, CDD-H52W1); experiment: serum-stability ELISA, Day 1 vs Day 0
Method: as §1, §2, §3

Row | Binder | Binding %
13 | B1 | 118%
14 | B2 | 93%
15 | B3 | 97.5%
16 | B4 | 68.5%
17 | B5 | 93.2%
18 | B6 | 99%

molecular target: T1, human CD3ε/δ (ACRO systems, CDD-H52W1); experiment: serum-stability ELISA, Day 2 vs Day 0
Method: as §1, §2, §3

Row | Binder | Binding %
19 | B1 | 123%
20 | B2 | 98%
21 | B3 | 88.5%
22 | B4 | 74.3%
23 | B5 | 99.3%
24 | B6 | 102%

molecular target: T1, human CD3ε/δ (ACRO systems, CDD-H52W1); experiment: serum-stability ELISA, Day 10 vs Day 0
Method: as §1, §2, §3

Row | Binder | Binding %
25 | B1 | 102%
26 | B2 | 66.7%
27 | B3 | 62.1%
28 | B4 | 56.1%
29 | B5 | 78.2%
30 | B6 | 98.4%

molecular target: T1, human CD3ε/δ (ACRO systems, CDD-H52W1); experiment: serum-stability ELISA, Day 7 vs Day 0
Method: as §1, §2, §3

Row | Binder | Binding %
31 | B1 | 125%
32 | B2 | 98.8%
33 | B3 | 87.6%
34 | B4 | 77.5%
35 | B5 | 106%
36 | B6 | 104%

molecular target: T1, human CD3ε/δ (ACRO systems, CDD-H52W1); experiment: serum-stability ELISA, Day 9 vs Day 0
Method: as §1, §2, §3

Row | Binder | Binding %
37 | B1 | 118%
38 | B2 | 98.5%
39 | B3 | 83.3%
40 | B4 | 77%
41 | B5 | 96.5%
42 | B6 | 102%

molecular target: T1, human CD3ε/δ (ACRO systems, CDD-H52W1); experiment: serum-stability ELISA, Day 5 vs Day 0
Method: as §1, §2, §3

Row | Binder | Binding %
43 | B1 | 122%
44 | B2 | 96.1%
45 | B3 | 88%
46 | B4 | 78.1%
47 | B5 | 103%
48 | B6 | 104%
